# T1: HuRatTF, human-rat hybrid TF antigen (human-rat hybrid)
# T1 construct: also called HuRatTF protein; human-rat hybrid TF protein
# T1 chain: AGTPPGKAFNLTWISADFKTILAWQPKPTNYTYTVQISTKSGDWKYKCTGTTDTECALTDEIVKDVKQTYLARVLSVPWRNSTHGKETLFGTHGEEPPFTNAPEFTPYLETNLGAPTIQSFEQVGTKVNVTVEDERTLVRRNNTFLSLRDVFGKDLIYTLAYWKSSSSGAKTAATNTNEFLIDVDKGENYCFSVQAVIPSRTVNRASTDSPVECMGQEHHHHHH
# T2: mouse TF ECD-His (mouse, UniProt P20352 29-251)
# T2 construct: also called Mouse TF-His protein; mouse TF antigen protein
# T2 sequence: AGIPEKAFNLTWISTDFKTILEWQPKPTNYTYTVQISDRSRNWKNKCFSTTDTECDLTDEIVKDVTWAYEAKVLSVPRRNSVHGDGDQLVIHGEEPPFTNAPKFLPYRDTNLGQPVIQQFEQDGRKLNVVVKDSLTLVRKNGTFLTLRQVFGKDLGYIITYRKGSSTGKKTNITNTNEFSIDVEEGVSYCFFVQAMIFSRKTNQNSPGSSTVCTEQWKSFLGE
# T3: rat TF ECD-His (rat, UniProt P42533 29-252)
# T3 construct: also called rat TF-His protein; rat TF antigen protein
# T3 sequence: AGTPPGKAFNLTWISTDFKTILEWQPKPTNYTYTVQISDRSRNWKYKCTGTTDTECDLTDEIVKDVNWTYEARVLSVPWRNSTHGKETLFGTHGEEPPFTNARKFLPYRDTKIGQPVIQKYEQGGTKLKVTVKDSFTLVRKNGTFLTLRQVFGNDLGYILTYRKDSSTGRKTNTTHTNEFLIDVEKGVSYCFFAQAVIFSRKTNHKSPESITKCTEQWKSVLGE
# T4: cyno TF ECD-His (cTF-his) (monkey (cyno))
# T4 construct: also called bio-cTF-his; monkey TF-His protein
# T4 chain: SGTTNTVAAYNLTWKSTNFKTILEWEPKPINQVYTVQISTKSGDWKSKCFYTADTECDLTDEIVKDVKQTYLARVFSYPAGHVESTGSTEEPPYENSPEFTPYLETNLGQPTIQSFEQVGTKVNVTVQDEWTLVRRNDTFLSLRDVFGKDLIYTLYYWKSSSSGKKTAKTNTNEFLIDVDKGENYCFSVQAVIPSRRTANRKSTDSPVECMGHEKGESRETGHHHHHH
# B1: hu10H10-77 (antibody, V domains shown)
# VH: EVQLVQSGSELKKPGASVKVSCKASGYTFITYWIEWVKQRPGQGLEWMGDILPYSGSTNYNENFKGRATFSADTSVSTAYLQISSLKAEDTAVYYCARSGYYGNSGFAYWGQGTLVTVSS
# VL: DIQMTQSPSSLSASVGDRVTITCQSSQSLLSSGNQKNYLTWYQQKPGKAPKLLIYWASTRESGVPSRFSGSGSGTDFTLTISSLQPEDFATYYCQNDYTYPLTFGQGTKLEIK
# notes: H11+L9; Full-length IgG
# B2: hu67Y116 (antibody, human IgG1, kappa, V domains shown)
# VH: EVQLQESGPGLVKPSQTLSLTCTVSGFSLTNYGVNWIRQSPGKGLEWIGVIWSRGNTDYNAAFKSRVTISKDTSKNQVSLKLSSVTAADTAVYYCARKDAIVATDALDYWGQGTTVTVSS
# VL: DIQMTQSPSSLSASVGDRVTITCKASQDVQTAVAWYQQKPGKAPKLLIYSTHYRYTGVPSRFSGSGSGTDFTFTISSLQPEDIATYYCLQSYTLPFSFGGGTKVEIKR
# B3: hu310-2 (antibody, human IgG1, kappa, V domains shown)
# VH: EVQLVQSGAEVKKPGASVKVSCKASGYSFTGYYMNWVRQAPGQGLEWMGEINPSTGGSTYNQKFKARVTMTVDQSTSTVYMELSSLRSEDTAVYYCARRELGGPFGYWGQGTTVTVSS
# VL: SIVMTQSPDSLAVSLGERATINCKASQSVSNGIAWYQQKPGQSPKLLIYFASNRYTGVPDRFSGSGYGTDFTLTISSLQAEDVAVYYCQQDYSSPWTFGGGTKVEIKR
# B4: hu67-14 (antibody, human IgG1, kappa, V domains shown)
# VH: EVTLKQSGPVLVKPTQTLTLTCTVSGFSLTNYGVNWIRQPPRKGLEWLGVIWSRGNTDYNAAFISRLTISKDNSKSQVVLKMTNMDPVDTATYYCARKDAVVATDALDYWGQGTTVTVSS
# VL: DIQMTQSHKFLSASVGDRVTITCKASQDVSTAVAWYQQKPGKSPKLLIYSTSYRYTGVPSRFSGSGSGTDFTFTISSLQPEDIATYYCQQHYSTPYTFGGGTKVEIKR
# Biological target: T5, human tissue factor (TF) on MDA-MB-231, NCI-H358 and HCT116 cells (human, UniProt P13726 33-295)
# Experiment: cell-based or functional assay
row,Binder,"Inhibition rate (%), Factor-VII-Human Chromogenic-Activity blood coagulation pathway assay (FVIIa, MDA-MB-231 cells, FX; antibody 20 µg/mL) [%]"
1,B1,-1.8
2,B2,4
3,B3,-2.8

# Biological target: T5, human tissue factor (TF) on MDA-MB-231, …
# Experiment: cell-based or functional assay
# Remark: another data set of the same source
row,Binder,"EC50 (nM), IL8 assay (IL-8 of MDA-MB-231 cells after antibody and FVIIa) [nM]"
1,B1,0.412
2,B2,1.57
3,B3,0.407

# Biological target: T5, human tissue factor (TF) on MDA-MB-231, …
# Experiment: flow cytometry on H358 cells
row,Binder,EC50 [nM]
1,B4,107
2,B1,0.68
3,B2,5.42
4,B3,0.67

# Biological target: T5, human tissue factor (TF) on MDA-MB-231, …
# Experiment: flow cytometry on HCT116 cells
row,Binder,EC50 [nM]
1,B1,0.47
2,B2,1.66
3,B3,0.34

# Biological target: T5, human tissue factor (TF) on MDA-MB-231, …
# Experiment: flow cytometry on MDA-MB-231 cells
row,Binder,EC50 [nM]
1,B4,18.9
2,B1,1.64
3,B2,4.91
4,B3,1.32

# Biological target: T1, HuRatTF, human-rat hybrid TF antigen
# Experiment: ELISA, HuRatTF coated, antibody titrated
Binder,EC50 [nM],Maximum (OD450 nm)
B1,2,1.39
B2,53.4,0.292
B3,2.13,0.428

# Biological target: T2, mouse TF ECD-His
# Experiment: ELISA, TF-His coated at 4 µg/mL, antibody titrated
row,Binder,binding result
1,B1,no binding
2,B2,no binding
3,B3,no binding

# Biological target: T3, rat TF ECD-His
# Experiment: ELISA, TF-His coated at 4 µg/mL, antibody titrated
row,Binder,binding result
1,B1,no binding
2,B2,no binding
3,B3,no binding

# Biological target: T6, human TF ECD-His (hTF-his) (human, UniProt P13726 33-251)
# T6 construct: also called bio-hTF-his; human TF-His protein
# Experiment: ELISA, antibody captured by anti-human IgG, biotinylated TF-his titrated
Binder,EC50 [µg/mL],Emax
B1,0.0035,1
B2,0.103,0.89
B3,0.0529,0.92

# Biological target: T4, cyno TF ECD-His (cTF-his)
# Experiment: as above
Binder,EC50 [µg/mL],Emax
B1,0.0027,1.13
B2,0.0691,1.17
B3,0.041,0.92

# Biological target: T6, human TF ECD-His (hTF-his)
# Experiment: SPR Biacore T200, antibody on Protein A chip, TF-His as analyte, 1:1 model
Binder,Kd [nM],koff [s⁻¹],kon [M⁻¹ s⁻¹]
B4,20.1,0.000624,31000
B1,0.749,0.00011,146000
B2,39.4,0.00263,66700
B3,18.5,0.00699,378000

# Biological target: T4, cyno TF ECD-His (cTF-his)
# Experiment: as above
Binder,Kd [nM],koff [s⁻¹],kon [M⁻¹ s⁻¹]
B4,12.9,0.000399,31000
B1,0.677,0.000114,169000
B2,27.1,0.000947,35000
B3,19.2,0.00637,332000
